“Also recorded” adds a separate entry of the source.
Tests used:
[1] = test system: human pancreas and breast tumor tissue; assay: immunohistochemical staining of human tumor and normal tissue; type: binding; conditions: IHC
Description: FIGS. 1A and 1B are a series of photomicrographs depicting specific binding of an exemplary antibody of the presently disclosed subject matter to human and mouse pancreatic tumors. The dark staining in the panels is indicative of positive binding of the exemplary antibody to cells present in the sample. […] FIG. 1B is a series of photomicrographs depicting the binding of an exemplary antibody of the presently disclosed subject matter to spontaneous tumors present in the pancreas of 6, 16, 26, and 34 week old transgenic mice that carried a human MUC1 transgene and a K-ras^G12D mutation.
FIGS. 2A and 2B are a series of photomicrographs depicting specific binding of an exemplary antibody of the presently disclosed subject matter (i.e., a horse radish peroxidase (HRP)-labeled TAB-004 anti-MUC1 monoclonal antibody) to human breast tumor tissue. […]
Epitope screening determined that the TAB-004 monoclonal antibody (mAb) described herein bound to an epitope present within SEQ ID NO: 3. […]

[2] = test system: human breast cancer cell lines; assay: flow cytometry of breast cancer cell lines with TAB-004 conjugated to Cy7; type: cell-based; conditions: Cy7 conjugate
Procedure: FIG. 13 is a series of plots of flow cytometric analyses of TNBC cell lines stained with a Cy7-conjugated TAB-004 monoclonal antibody (1 μg/sample). Compared to isotype control (solid trace in each panel; red lines in color photo), all cell lines expressed high to moderate levels of tMUC. MDA-MB-231 is mesenchymal in phenotype and loses MUC1 in vitro while Hs578T is a mesenchymal stem-like carcinosarcoma that has low expression of tMUC (depicted with dashed lines in each panel).
A 45-panel human breast cancer cell lines were tested for tMUC expression with TAB-004 conjugated to Cy7 and flow cytometry. […] In particular, apart from those with a mesenchymal phenotype, all cell lines expressed high levels of tMUC.

CTCs = assay: […] measurement of MUC1-expressing CTCs; type: cell-based, human; conditions: 7.5 ml blood spiked with PANC1 cells
Procedure: Both breast and pancreatic primary and metastatatic tumors express high levels of tumor-associated MUC1 recognized by the TAB-004 antibody of the presently disclosed subject matter. Therefore, CTCs in these patients should be recognized by the TAB-004 antibody. In preliminary experiments, levels of MUC1 were assessed using the TAB-004 antibody. First, the ability to use the Veridex […]® system to measure MUC1-expressing CTCs using 7.5 ml blood samples (analogous to human samples) spiked with PANC1 cells, which are a human pancreatic cancer cell line was tested. Approximately 90% of the CTCs (EpCAM+ cells) expressed MUC1. […] Therefore, using the TAB-004 antibody appears to accurately detect micrometastases in pancreatic and breast cancer patients.

KCM pancreatic cell line = assay: binding to KCM pancreatic cell line; type: cell-based, mouse
Description: FIG. 3 is a schematic (upper left panel) showing an approach for creating a triple transgenic mouse line that expresses the Cre recombinase throughout the pancreas, a mutated K-ras oncogene polypeptide, and a human MUC1 polypeptide. This mouse develops pancreatic adenocarcinoma, cells of which were used to generate the primary tumor cell line KCM (lower panel). The KCM cell line was used to test the binding of an exemplary antibody of the presently disclosed subject matter (denoted in the Figure as “TAB” and in the instant disclosure as “TAB-004”) either alone or conjugated to CpG oligodeoxynucleotides (CpG ODN).
(§1) The TAB-004 antibody alone or conjugated to CpG ODN bound to a tumor cell line (referred to herein as the “KCM” cell line; see FIG. 3) generated from the triple transgenic PDA.MUC1.Tg mice.

[3] = test system: orthotopic tumors (PyVMT, PyVMT.MUC1, HCC-70, and AU565); assay: IVIS imaging of TAB-004-ICG in Nu-J nude mice with orthotopic tumors; type: in vivo, mouse; conditions: ICG-conjugated
Procedure: FIGS. 18A-18D are a series of fluorescent images showing specific homimg of the ICG-tagged TAB-004 antibody to tumor sites in mice bearing PyV MT tumors (MUC1 null negative control; FIG. 18A), PyV MT.MUC1 tumors (MMT, MUC1+ positive control; FIG. 18B), HCC70 cell triple negative breast cancer (TNBC) tumors (MUC1+; FIG. 18C), and AU565 TNBC cell tumors (MUC1+; […]) imaged 4 hours post-injection with antibody. Imaging was repeated as tumors progressed (indicated as days post tumor challenge). […] Each of FIGS. 18A-18D is accompanied by a graph showing the growth of the tumor from 7-21 days (FIGS. 18A and 18B) or from 7 to 54 days (FIGS. 18C and 18D).
To test if TAB-004 can specifically reach TNBC tumors in vivo in mice, orthotopic tumors (PyVMT, PyVMT.MUC1, HCC-70, and AU565) were produced in the mammary fat pad of mice. Nu-J nude mice (8-week old) were injected with 10×10^6 cells in the lower right inquinal area of the mammary fat pad. When tumors were palpable, mice were injected retroorbitally with 12.5 μgs of TAB-004-directly conjugated to Indocyanine green (ICG) and imaged 4 hours post antibody injection. […] A negative breast cancer cell line that is null for human MUC1 was used as control to test specificity (PyVMT; see FIG. 18A).

KCM tumor cells = assay: NK cell specific lysis of tumor cells; type: cell-based, mouse; conditions: various E:T ratios
Description: FIGS. 4A and 4B are graphs showing that an exemplary antibody of the presently disclosed subject matter (TAB-004) enhanced the cytotoxicity of Natural Killer (NK) cells to kill target tumor cells.
as §1

mutated K-ras = molecular target: T1, mutated K-ras (Mus musculus, UniProt P32883, G12D); assay: staining of tumor tissues expressing the K-ras mutation but not human MUC1; type: binding
T1 construct: from tissue; host or cells: tumour tissue expressing the K-ras mutation but not human MUC1

[4] = molecular target: tumor-specific form of MUC1 (tMUC) (Homo sapiens, UniProt P15941); conditions: cited from earlier work

B1: TAB-004: mAb of the IgG isotype produced by hybridoma ATCC PTA-11550; binds tumor-specific epitope of human MUC1 (antibody, V domains shown)
VH: EVQLQQSGGERATPGASVKMSCKTSGYTFTNYWMHWVKQRPGQGLEWIGYINPSSGYTQYNQKFKDKATLTADKSSSTAYIQLSSLTSEDSAVYYCSTYYGDYLFPYWGQGTLVTVSA
VL: DVLMTQTPLSLPVSLGDQASISCRSSQDIVYGNGNTYLEWYLQKPGQSPKLLIYKVSNRFSGVPDRFSGSGSGTDFTLKISRVEAEDLGVYYCFQGSHVPYTFGGGTKLEIKR
staining of normal tissue [1]: did not bind appreciably to normal pancreas or breast tissue; also recorded: did not bind to normal tissue
staining of tumor tissue [1]: reacted strongly with tumor tissue; also recorded: strongly stained
staining of breast cancer cell line subtypes ([2]; 45-panel): stained strongly
staining of MDA-MB-231 cell line [2]: stained weakly
CTCs (EpCAM+ cells) expressing MUC1 (CTCs): Approximately 90%
binding to KCM cell line (KCM pancreatic cell line): bound to the KCM pancreatic cell line with equal affinity
earliest specific localization to tumor sites, human cell lines ([3]; HCC70 and AU565, days post tumor challenge): 21 days
earliest specific localization to tumor sites, PyVMT.MUC1 tumors ([3]; days post tumor challenge): 11 days
specific lysis of tumor cells by NK cells (KCM tumor cells): enhanced specific lysis of KCM tumor cells
cross reactivity with mutated K-ras (mutated K-ras): cross reacted with mutated K-ras
binding affinity [4]: 3 ng/mL
binding to unrelated antigens [4]: does not bind unrelated antigens
Kd ([4]; read-out: binding affinity): 0.02 nM

Reference: patent publication US12605469B2, “Tumor specific antibody conjugates and uses therefor” (The University of North Carolina at Charlotte, priority 2019, dated 2026)
